In article PMC6572100, “Structure of the Prx6-subfamily 1-Cys peroxiredoxin from Sulfolobus islandicus” (Acta Crystallographica. Section F, Structural Biology …, 2019):

Experiments:
[1] = target: the molecule itself; assay: SEC; Superdex 200, about 2 mg protein, 50 mM Na2HPO4 pH 7.4, 150 mM NaCl; untreated protein; molecular-weight standard curve
[2] = target: the molecule itself; assay: crystal structure; hanging-drop vapor diffusion, 7.5 mg/ml protein in 10 mM Tris-HCl pH 7.5; reservoir 10 mM Tris-HCl pH 7.5, 15% PEG 1500, 0.1 M MgCl2, 283 K; 2.75 Å, space group P212121, ten monomers in the asymmetric unit

B1: Sulfolobus islandicus 1-Cys peroxiredoxin (1-Cys SiPrx) (enzyme, Sulfolobus islandicus REY15a)
chain: MVSEGRIPLIGEKFPEMEVITTHGKIKLPDDYKGRWFVLFSHPGDFTPVCTTEFYSFSKKYEEFKKLNTELIGLSVDSNISHIEWVMWIEKNLKVEVPFPIIADPMGNVAKRLGMIHAESSTATVRAVFIIDDKGTVRLILYYPMEIGRNIDEILRAIRALQLVDKAGVVTPANWPNNELIGDKVINPAPRTIKDAKMRLGQPFDWWFTYKEVKTT
notes: The residue numbers printed in the text (Cys49, His41, Lys24) are one lower than the positions in the printed construct (C50, H42, K25); surmise: the V at position 2 comes from the NcoI cloning site; Decamer (five homodimers) in the crystal and in solution; also called S. islandicus Bcp2; SiRe_0346; source: E. coli Rosetta, purified (HisTrap FF, dialysis); not shown: His6, C-terminal, kept; …
- stoichiometry N [1]: ~20 subunits
- stoichiometry N [2]: 10 subunits
